Laboratory results reported in US20250188195A1.

Target: cotinine-conjugated anti-HER2 affibody (ZQAA1-Cot)
Test: ELISA, ZQAA1-Cot (2 ug/mL) captured on coated hHER2-ECD-His, anti-hIgG-Fc-HRP, absorbance at 450 nm

B1: humanized antibody (hz33B2) specifically binding to cotinine (antibody, V domains shown)
VH: QVQLVQSGAEVKKPGASVKVSCKASGYTFTSYWIQWVRQAPGQGLEWMGEIFPGTGTTYYNEKFKGRVTMTIDTSTSTVYMELSSLRSEDTAVYYCARGGYYYDSRAWFAYWGQGTLVTVSS
VL: QAVVTQEPSLTVSPGGTVTLTCRSSTGTVTTSNYANWVQQKPGQAPRGLIGGTNNRAPWTPARFSGSLLGDKAALTLSGAQPEDEAEYYCALWFSNHWVFGGGTKLTVLG
An EC50 (read off the curve) of 0.06 mg/L was found for B1 in this work.
